Consider one substance from patent publication US20180355338A1.

Test [1] deals with TY-145 protease variant S27K, I121V, S171N, S173P, G174R, S175P, F180Y, L184F, Q198E, T297P (Bacillus sp. TY-145). Nature of the test: Ki fitted from Suc-AAPF-pNA activity; Model B detergent; ratio against m6 (without L184F).
Test [2] has as its target TY-145 protease (mature, SEQ ID NO: 3) (Bacillus sp. TY-145). Nature of the test: Ki fitted from Suc-AAPF-pNA activity; Model B detergent; the reference itself (TY145 backbone).
Test [3] addresses TY-145 protease variant S27K, S171N, S173P, G174R, S175P, F180Y, L184Y, Q198E, T297P (Bacillus sp. TY-145). Nature of the test: Ki fitted from Suc-AAPF-pNA activity; Model B detergent; ratio against m4 (without L184Y).
For test [4], the target named is TY-145 protease variant I150N, S173P, S175P, F180Y (Bacillus sp. TY-145). Nature of the test: Ki fitted from Suc-AAPF-pNA activity; Tris buffer pH 8; ratio against m3 (without I150N).
Test [5] concerns the target TY-145 protease variant S27K, S173P, G174K, S175P, F180Y, L184Y, Q197K, Q198E, T297P (Bacillus sp. TY-145). Nature of the test: Ki fitted from Suc-AAPF-pNA activity; Model B detergent; ratio against m10 (without L184Y).
Test [6] addresses TY-145 protease variant S173P, S175P, F180Y, R224S (Bacillus sp. TY-145). Nature of the test: Ki fitted from Suc-AAPF-pNA activity; Model B detergent; ratio against m3 (without R224S).
In test [7] the target is TY-145 protease variant S27K, S173P, G174K, S175P, F180Y, L184F, Q198E, N199R, T297P (Bacillus sp. TY-145). Nature of the test: Ki fitted from Suc-AAPF-pNA activity; Model B detergent; ratio against m9 (without L184F).
The target of test [8] is TY-145 protease variant S114Q, S173P, S175P, F180Y (Bacillus sp. TY-145). Nature of the test: Ki fitted from Suc-AAPF-pNA activity; Tris buffer pH 8; ratio against m3 (without S114Q).
Test [9] addresses TY-145 protease variant S27K, I121V, S171N, S173P, G174R, S175P, F180Y, Q198E, R224S, T297P (Bacillus sp. TY-145). As to the kind of experiment: Ki fitted from Suc-AAPF-pNA activity; Model B detergent; ratio against m6 (without R224S).
Test [10] addresses TY-145 protease variant S27K, S171D, S173P, G174R, S175P, G182A, L184F, Q198E, N199K, R224G, T297P (Bacillus sp. TY-145). As to the kind of experiment: Ki fitted from Suc-AAPF-pNA activity; Model B detergent; ratio against m12 (without R224G).
In test [11] the target is TY-145 protease variant K146W, S173P, S175P, F180Y (Bacillus sp. TY-145). As to the kind of experiment: Ki fitted from Suc-AAPF-pNA activity; Model B detergent; ratio against m3 (without K146W).
Test [12] has as its target TY-145 protease variant S27K, S173P, G174K, S175P, F180Y, L184F, Q198E, N199K, T297P (Bacillus sp. TY-145). As to the kind of experiment: Ki fitted from Suc-AAPF-pNA activity; Model B detergent; ratio against m8 (without L184F).
For test [13], the target named is TY-145 protease variant S27K, S173P, G174K, S175P, F180Y, L184Y, Q198E, N199K, T297P (Bacillus sp. TY-145). As to the kind of experiment: Ki fitted from Suc-AAPF-pNA activity; Model B detergent; ratio against m8 (without L184Y).
In test [14] the target is TY-145 protease variant S173P, S175P, F180Y, L184W (Bacillus sp. TY-145). Nature of the test: Ki fitted from Suc-AAPF-pNA activity; Model B detergent; ratio against m3 (without L184W).
For test [15], the target named is TY-145 protease variant S27K, I150N, S171N, S173P, G174R, S175P, F180Y, Q198E, T297P (Bacillus sp. TY-145). As to the kind of experiment: Ki fitted from Suc-AAPF-pNA activity; Model B detergent; ratio against m4 (without I150N).
Test [16] has as its target TY-145 protease variant S27K, S171N, S173P, G174R, S175P, F180Y, Q198E, N199K, R224G, T297P (Bacillus sp. TY-145). As to the kind of experiment: Ki fitted from Suc-AAPF-pNA activity; Model B detergent; ratio against m11 (without R224G).
In test [17] the target is TY-145 protease variant K146A, S173P, S175P, F180Y (Bacillus sp. TY-145). Nature of the test: Ki fitted from Suc-AAPF-pNA activity; Tris buffer pH 8; ratio against m3 (without K146A).
Test [18] concerns the target TY-145 protease variant K146W, S173P, S175P, F180Y (Bacillus sp. TY-145). As to the kind of experiment: Ki fitted from Suc-AAPF-pNA activity; Tris buffer pH 8; ratio against m3 (without K146W).
Test [19] addresses TY-145 protease variant S27K, S171N, S173P, G174R, S175P, F180Y, L184W, Q198E, T297P (Bacillus sp. TY-145). Nature of the test: Ki fitted from Suc-AAPF-pNA activity; Model B detergent; ratio against m4 (without L184W).
Test [20] deals with TY-145 protease variant I150N, S173P, S175P, F180Y (Bacillus sp. TY-145). Nature of the test: Ki fitted from Suc-AAPF-pNA activity; Model B detergent; ratio against m3 (without I150N).
Test [21] deals with TY-145 protease variant S114Q, S173P, S175P, F180Y (Bacillus sp. TY-145). Nature of the test: Ki fitted from Suc-AAPF-pNA activity at 8 inhibitor concentrations; Model B detergent; ratio against m3 (without S114Q).
Test [22] concerns the target TY-145 protease variant K146N, S173P, S175P, F180Y (Bacillus sp. TY-145). Nature of the test: Ki fitted from Suc-AAPF-pNA activity; Model B detergent; ratio against m3 (without K146N).
The target in test [23] is TY-145 protease variant S173P, S175P, F180Y, L184F (Bacillus sp. TY-145). Nature of the test: Ki fitted from Suc-AAPF-pNA activity; Model B detergent; ratio against m3 (without L184F).

In the case of “Z-Gly-Ala-NHCH(CH2C6H4pOH)C(OH)(SO3Na)-H, wherein Z is benzyloxycarbonyl (peptide)”, the relative Ki mutation in test [1] was determined as 0.3; in test [3], 0.18; in [4], 0.21; in test [5] it was 0.32; in [6] it was 0.5; in test [7] it was 0.22. In addition, the relative Ki mutation in test [8] came to 0.34; in test [9], 0.56; in [10], 0.49; in test [11], 0.23; in [12], 0.36; in test [13], 0.21. In addition, the relative Ki mutation in test [14] turned out to be 0.5; in test [15] it was 0.24; in [16], 0.74; in test [17] it was 0.29; in test [18], 0.16; in test [19], 0.57. Also, the relative Ki mutation in [20] was 0.35; in test [21] it was 0.63; in test [22], 0.93; in test [23] it was 0.31. In test [2], this substance returned an IF (binding constant improvement factor, relative Ki) of 1.
